The Human Domainome abundance scans (Beltran et al. 2025)
± gives the uncertainty stated by the source.

B1: Histone H1t, residues 44 to 112; numbered along this chain, P22492 (parent)
chain: VSKLITEALSVSQERVGMSLVALKKALAAAGYDVEKNNSRIKLSLKSLVNKGILVQTRGTGASGSFKLS

Variants of: B1
Test: abundance fitness (aPCA) (normalised: wild type 0, dead -1); higher = more abundant; growth selection in yeast, the domain comes from the species named
Settings: Homo sapiens

Abundance fitness: each site, then its substitutions
R40: T -0.085 ± 0.03; N -0.165 ± 0.12; K 0.128 ± 0.031; A 0.091 ± 0.035; E -0.036 ± 0.056; S -0.404 ± 0.12; V -0.396 ± 0.21; L -0.097 ± 0.12; G -0.372 ± 0.037; M -0.215 ± 0.18; Q 0.024 ± 0.028; P -0.444 ± 0.03; H -0.094 ± 0.072
V49: K -0.173 ± 0.044; I -0.026 ± 0.054; H -0.432 ± 0.083; A -0.336 ± 0.3; L 0.052 ± 0.035; D -0.416 ± 0.48; F -0.056 ± 0.033
S39: D -0.013 ± 0.11; K -0.001 ± 0.045; W -0.472 ± 0.072; R -0.327 ± 0.049; M -0.228 ± 0.045; C -0.675 ± 0.22; L -0.317 ± 0.028; P -0.445 ± 0.045; G -0.087 ± 0.044; E 0.148 ± 0.052; V -0.539 ± 0.059; H -0.089 ± 0.085; F -0.594 ± 0.067; Q 0.075 ± 0.04; N 0.075 ± 0.15; Y -0.557 ± 0.23
L43: K 0.181 ± 0.026; P -0.483 ± 0.033; Q 0.172 ± 0.027; N 0.266 ± 0.044; E 0.229 ± 0.035; V -0.617 ± 0.38; S 0.034 ± 0.088; A 0.18 ± 0.032; D 0.036 ± 0.13; R 0.049 ± 0.032; G -0.061 ± 0.036; H 0.015 ± 0.043
I41: M -0.191 ± 0.031; H -0.444 ± 0.049; E -0.813 ± 0.11; Q -0.556 ± 0.049; P -0.394 ± 0.035; T -0.56 ± 0.039; V -0.308 ± 0.041; D -0.742 ± 0.13; R -0.514 ± 0.034; N -0.542 ± 0.052; Y -0.43 ± 0.057; G -0.405 ± 0.041; C -0.439 ± 0.054; L -0.124 ± 0.026; W -0.113 ± 0.043; F -0.055 ± 0.031
K42: M 0.14 ± 0.05; Y -0.138 ± 0.086; T -0.045 ± 0.035; V -0.024 ± 0.028; N -0.379 ± 0.19; A -0.098 ± 0.025; G -0.188 ± 0.039; H -0.158 ± 0.073; I 0.094 ± 0.12; P -0.682 ± 0.029; E 0.182 ± 0.038; F -0.413 ± 0.12; S -0.108 ± 0.031; L 0.048 ± 0.031; R -0.125 ± 0.041; D -0.096 ± 0.065
L45: V -0.141 ± 0.11; S -0.742 ± 0.046; I -0.417 ± 0.28; M -0.386 ± 0.089; C -0.425 ± 0.21; W -0.125 ± 0.092; P -0.46 ± 0.049; R -0.915 ± 0.11; N -0.897 ± 0.42; A -0.643 ± 0.082; F -0.372 ± 0.081; T -0.63 ± 0.062; H -1.2 ± 0.48; Q -0.782 ± 0.24; E -0.978 ± 0.46; G -0.574 ± 0.15; K -0.859 ± 0.15
S44: A 0.324 ± 0.2; E 0.175 ± 0.29; L -0.108 ± 0.055; W -0.426 ± 0.24; C 0.217 ± 0.18; Y -0.279 ± 0.072; P -0.636 ± 0.046; Q -0.072 ± 0.046; I -0.239 ± 0.072; M -0.047 ± 0.065; H -0.126 ± 0.044; F -0.298 ± 0.098; R -0.173 ± 0.12; V 0.16 ± 0.23; N -0.148 ± 0.043; T 0.081 ± 0.036
K46: R -0.053 ± 0.066; H -0.35 ± 0.12; N -0.489 ± 0.11; L -0.178 ± 0.029; P -0.841 ± 0.07; W -0.418 ± 0.094; I -0.129 ± 0.056; C -0.628 ± 0.15; S -0.332 ± 0.041; E -0.053 ± 0.14; V -0.197 ± 0.065; M -0.23 ± 0.038; Y -0.895 ± 0.14; Q -0.226 ± 0.066; A -0.01 ± 0.067; D -0.329 ± 0.28; T -0.209 ± 0.079; G -0.875 ± 0.16
L48: I -0.564 ± 0.059; P -0.873 ± 0.074; F -0.404 ± 0.039; D -0.405 ± 0.14; T -0.592 ± 0.064; R -0.864 ± 0.1; E -0.784 ± 0.18; W -0.402 ± 0.15; Y -0.624 ± 0.061; K -0.939 ± 0.079; G -0.894 ± 0.12; H -0.979 ± 0.097; V -0.536 ± 0.087; Q -0.643 ± 0.075; S -0.801 ± 0.068; C -0.589 ± 0.13; N -0.775 ± 0.094; A -0.755 ± 0.084
S47: M -0.05 ± 0.066; R -0.087 ± 0.058; W -0.143 ± 0.09; L -0.228 ± 0.033; K -0.191 ± 0.089; D -0.07 ± 0.18; Y -0.23 ± 0.11; C 0.036 ± 0.16; A -0.049 ± 0.045; E 0.232 ± 0.1; T 0.01 ± 0.043; F -0.41 ± 0.1; Q 0.02 ± 0.041; N -0.156 ± 0.22; V -0.307 ± 0.071; H -0.13 ± 0.082; G -0.465 ± 0.12; I -0.587 ± 0.24
